Here are results for three molecules from patent US20220305003A1, “METHODS OF TREATING CANCER WITH AN INHIBITOR OF ZNF827” (CHILDREN'S MEDICAL RESEARCH INSTITUTE, priority 2019, published 2022).

In one data set the target is T1, ZNF827 ZnF1-3 deleted (Homo sapiens, UniProt Q17R98 SEQ:4-997).
T1 chain: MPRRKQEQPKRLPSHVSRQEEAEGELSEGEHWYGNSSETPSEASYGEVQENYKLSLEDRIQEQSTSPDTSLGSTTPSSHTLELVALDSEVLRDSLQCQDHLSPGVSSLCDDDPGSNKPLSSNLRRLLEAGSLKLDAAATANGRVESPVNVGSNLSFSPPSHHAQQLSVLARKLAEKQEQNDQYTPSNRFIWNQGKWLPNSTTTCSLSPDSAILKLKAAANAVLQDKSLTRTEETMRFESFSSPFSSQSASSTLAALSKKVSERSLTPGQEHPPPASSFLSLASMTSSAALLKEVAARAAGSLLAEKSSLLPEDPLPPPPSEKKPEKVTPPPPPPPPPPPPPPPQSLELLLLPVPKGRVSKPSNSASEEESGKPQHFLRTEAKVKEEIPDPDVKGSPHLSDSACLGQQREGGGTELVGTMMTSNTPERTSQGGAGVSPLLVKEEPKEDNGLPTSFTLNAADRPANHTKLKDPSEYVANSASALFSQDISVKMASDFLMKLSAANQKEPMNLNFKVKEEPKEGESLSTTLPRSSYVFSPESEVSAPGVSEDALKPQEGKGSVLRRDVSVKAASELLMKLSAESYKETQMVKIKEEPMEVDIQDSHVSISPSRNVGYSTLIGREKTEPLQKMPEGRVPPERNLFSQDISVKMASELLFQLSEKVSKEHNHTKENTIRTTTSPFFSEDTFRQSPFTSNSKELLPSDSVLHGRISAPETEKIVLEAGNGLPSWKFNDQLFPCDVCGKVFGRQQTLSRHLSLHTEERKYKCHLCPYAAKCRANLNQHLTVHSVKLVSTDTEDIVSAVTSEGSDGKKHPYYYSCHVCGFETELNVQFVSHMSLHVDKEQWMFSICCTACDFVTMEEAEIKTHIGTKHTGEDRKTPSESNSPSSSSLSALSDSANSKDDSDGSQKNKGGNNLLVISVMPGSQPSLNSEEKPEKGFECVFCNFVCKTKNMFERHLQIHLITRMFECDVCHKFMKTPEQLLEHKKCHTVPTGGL
Description: EMSA; binding abrogated. Particulars: tags: HaloTag (pHTN), expressed in HEK 293T, tag removed by HaloTEV cleavage; label: 32P (gamma). How it is done:
(§1) Purified proteins were quantified using a BCA assay using the Pierce™ BCA Protein Assay Kit according to the manufacturer's instructions. Equal amounts of purified proteins were incubated in binding buffer (20 mM HEPES-KOH, pH7.9, 100 mM KCl, 0.8 mM ZnCl₂, 0.2 mM EDTA, 5% glycerol, 0.5 mM DTT and 0.5 mM PMSF) with 6.25 μg/mL poly (dI:dC) and 50 ng/μL BSA on ice for 20 minutes. ˜0.12 nM (˜2.5 fmol) γ-³²P labelled DNA oligonucleotide (see Table 3) probes were added to samples and incubated on ice for another 30 minutes. Binding reactions were loaded onto an 8% native acrylamide/bisacrylamide (19:1, Biorad) gel pre-run at 100V in 0.5× TB buffer (89 mM Tris, 89 mM boric acid) for 20 minutes. Gels were electrophoresed at 150 V for 150 minutes at 4° C., dried at 65° C. for 45 minutes, and then exposed to a Phosphor screen overnight. Gel images were obtained by scanning the screens with a Typhoon FLA9500 Imager (GE Life Sciences).

In a further data set the target is T2, ZNF827 ZnF4-9 deleted (Homo sapiens).
T2 chain: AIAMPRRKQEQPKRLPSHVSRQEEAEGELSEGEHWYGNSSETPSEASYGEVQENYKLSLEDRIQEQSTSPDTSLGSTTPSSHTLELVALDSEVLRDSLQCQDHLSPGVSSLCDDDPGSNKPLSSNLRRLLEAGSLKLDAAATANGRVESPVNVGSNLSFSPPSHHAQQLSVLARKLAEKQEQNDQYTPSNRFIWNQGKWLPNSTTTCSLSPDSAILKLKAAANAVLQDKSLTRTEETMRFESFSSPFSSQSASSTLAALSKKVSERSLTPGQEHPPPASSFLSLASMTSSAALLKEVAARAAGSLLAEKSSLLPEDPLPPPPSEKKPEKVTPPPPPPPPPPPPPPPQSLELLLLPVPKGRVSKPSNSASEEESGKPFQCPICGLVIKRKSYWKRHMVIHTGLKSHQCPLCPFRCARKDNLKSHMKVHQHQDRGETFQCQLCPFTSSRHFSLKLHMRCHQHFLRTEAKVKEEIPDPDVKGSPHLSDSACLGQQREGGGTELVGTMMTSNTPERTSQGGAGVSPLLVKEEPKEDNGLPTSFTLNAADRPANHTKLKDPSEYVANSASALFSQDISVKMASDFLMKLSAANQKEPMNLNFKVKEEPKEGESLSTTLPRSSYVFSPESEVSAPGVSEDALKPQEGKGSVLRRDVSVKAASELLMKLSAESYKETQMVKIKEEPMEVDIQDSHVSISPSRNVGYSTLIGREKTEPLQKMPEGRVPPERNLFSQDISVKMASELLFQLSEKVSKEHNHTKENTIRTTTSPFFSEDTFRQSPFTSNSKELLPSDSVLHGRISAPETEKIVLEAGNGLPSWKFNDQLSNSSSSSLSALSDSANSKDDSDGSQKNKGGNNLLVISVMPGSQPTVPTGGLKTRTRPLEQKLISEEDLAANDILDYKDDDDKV
In words: EMSA; 0.8 mM ZnCl2, 100 mM KCl, poly(dI:dC), on ice. Particulars: tags: HaloTag (pHTN), expressed in HEK 293T, tag removed by HaloTEV cleavage; label: 32P (gamma). As to the method:
as §1

For another data set, the target named is T3, ZNF827 full length (Homo sapiens, UniProt Q17R98 SEQ:1-1081).
T3 sequence: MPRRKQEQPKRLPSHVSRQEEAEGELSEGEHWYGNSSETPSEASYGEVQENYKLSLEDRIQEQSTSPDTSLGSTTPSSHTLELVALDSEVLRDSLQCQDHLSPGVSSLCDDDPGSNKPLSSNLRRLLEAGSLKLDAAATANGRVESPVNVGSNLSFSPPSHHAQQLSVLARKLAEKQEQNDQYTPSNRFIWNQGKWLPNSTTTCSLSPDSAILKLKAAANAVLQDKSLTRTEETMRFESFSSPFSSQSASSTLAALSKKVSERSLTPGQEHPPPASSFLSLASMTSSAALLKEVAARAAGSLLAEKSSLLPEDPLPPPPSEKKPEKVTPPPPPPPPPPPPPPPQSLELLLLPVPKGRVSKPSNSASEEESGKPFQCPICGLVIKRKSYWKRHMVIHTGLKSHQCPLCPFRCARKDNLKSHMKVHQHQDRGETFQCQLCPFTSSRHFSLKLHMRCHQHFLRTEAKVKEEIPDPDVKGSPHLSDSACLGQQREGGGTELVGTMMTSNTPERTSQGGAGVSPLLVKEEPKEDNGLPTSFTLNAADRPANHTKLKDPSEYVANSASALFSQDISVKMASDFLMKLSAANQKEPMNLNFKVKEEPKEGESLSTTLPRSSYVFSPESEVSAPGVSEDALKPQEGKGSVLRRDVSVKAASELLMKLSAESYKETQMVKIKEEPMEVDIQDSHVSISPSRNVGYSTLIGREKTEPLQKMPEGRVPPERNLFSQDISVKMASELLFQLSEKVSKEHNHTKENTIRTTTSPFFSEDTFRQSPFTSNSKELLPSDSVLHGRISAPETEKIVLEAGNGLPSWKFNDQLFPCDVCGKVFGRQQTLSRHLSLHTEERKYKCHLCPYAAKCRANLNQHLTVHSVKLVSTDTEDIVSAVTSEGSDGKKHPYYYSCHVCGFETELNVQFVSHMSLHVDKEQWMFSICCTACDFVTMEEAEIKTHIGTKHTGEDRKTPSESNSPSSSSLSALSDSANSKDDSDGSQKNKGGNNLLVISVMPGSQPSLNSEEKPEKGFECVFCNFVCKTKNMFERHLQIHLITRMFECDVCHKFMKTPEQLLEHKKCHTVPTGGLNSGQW
The description is as above. Conditions: tags: HaloTag (pHTN), expressed in HEK 293T, tag removed by HaloTEV cleavage; label: 32P (gamma). As to the method: as §1

Data set [1] deals with T4, topoisomerase 2-binding protein 1 (TOPBP1) (human, UniProt Q92547 1-1522).
T4 construct: TOPBP1 in lysates of human cells, co-immunoprecipitated with Myc antibody
Description: co-IP with Myc antibody, Western blot. As to the method: Resuspended cells were lysed by incubation with rotation for 1 hour at 4° C. For Benzonase treatment to remove DNA, samples were incubated in the lysis buffer described above supplemented with 25 U Benzonase nuclease (Novagen, Merck Millipore) for 2 hours at 4° C. Lysates were subjected to centrifugation at 13,000 rpm for 40 minutes at 4° C. to remove cell debris. The supernatant was then transferred to a fresh cold low bind 1.5 mL tube for subsequent immunoprecipitation. For immunoprecipitation, protein lysates were incubated with antibody for the protein of interest (10 μg per mL lysate) or IgG control (Refer to Tables 4 and 5 for the list of antibodies used in this study), preincubated with Dynabeads Protein G, as per manufacturer's instructions (Life Technologies), with rotation overnight at 4° C. The following day, beads were washed three times in cold lysis buffer and separated on a magnetic rack. Proteins were then eluted from the beads by resuspension in 50 mM Glycine pH 2.8 and sodium dodecyl sulphate (SDS) sample buffer (0.2 M Tris-Cl, pH 6.8, 28% glycerol, 13.5% β-mercaptoethanol, 6% SDS, 6 mM EGTA, and 0.07% bromophenol blue) for 10 minutes at 70° C. and subjected to Western blot analysis, as described below, to detect various protein interactions. […]

T4 sequence (Q92547 whole entry): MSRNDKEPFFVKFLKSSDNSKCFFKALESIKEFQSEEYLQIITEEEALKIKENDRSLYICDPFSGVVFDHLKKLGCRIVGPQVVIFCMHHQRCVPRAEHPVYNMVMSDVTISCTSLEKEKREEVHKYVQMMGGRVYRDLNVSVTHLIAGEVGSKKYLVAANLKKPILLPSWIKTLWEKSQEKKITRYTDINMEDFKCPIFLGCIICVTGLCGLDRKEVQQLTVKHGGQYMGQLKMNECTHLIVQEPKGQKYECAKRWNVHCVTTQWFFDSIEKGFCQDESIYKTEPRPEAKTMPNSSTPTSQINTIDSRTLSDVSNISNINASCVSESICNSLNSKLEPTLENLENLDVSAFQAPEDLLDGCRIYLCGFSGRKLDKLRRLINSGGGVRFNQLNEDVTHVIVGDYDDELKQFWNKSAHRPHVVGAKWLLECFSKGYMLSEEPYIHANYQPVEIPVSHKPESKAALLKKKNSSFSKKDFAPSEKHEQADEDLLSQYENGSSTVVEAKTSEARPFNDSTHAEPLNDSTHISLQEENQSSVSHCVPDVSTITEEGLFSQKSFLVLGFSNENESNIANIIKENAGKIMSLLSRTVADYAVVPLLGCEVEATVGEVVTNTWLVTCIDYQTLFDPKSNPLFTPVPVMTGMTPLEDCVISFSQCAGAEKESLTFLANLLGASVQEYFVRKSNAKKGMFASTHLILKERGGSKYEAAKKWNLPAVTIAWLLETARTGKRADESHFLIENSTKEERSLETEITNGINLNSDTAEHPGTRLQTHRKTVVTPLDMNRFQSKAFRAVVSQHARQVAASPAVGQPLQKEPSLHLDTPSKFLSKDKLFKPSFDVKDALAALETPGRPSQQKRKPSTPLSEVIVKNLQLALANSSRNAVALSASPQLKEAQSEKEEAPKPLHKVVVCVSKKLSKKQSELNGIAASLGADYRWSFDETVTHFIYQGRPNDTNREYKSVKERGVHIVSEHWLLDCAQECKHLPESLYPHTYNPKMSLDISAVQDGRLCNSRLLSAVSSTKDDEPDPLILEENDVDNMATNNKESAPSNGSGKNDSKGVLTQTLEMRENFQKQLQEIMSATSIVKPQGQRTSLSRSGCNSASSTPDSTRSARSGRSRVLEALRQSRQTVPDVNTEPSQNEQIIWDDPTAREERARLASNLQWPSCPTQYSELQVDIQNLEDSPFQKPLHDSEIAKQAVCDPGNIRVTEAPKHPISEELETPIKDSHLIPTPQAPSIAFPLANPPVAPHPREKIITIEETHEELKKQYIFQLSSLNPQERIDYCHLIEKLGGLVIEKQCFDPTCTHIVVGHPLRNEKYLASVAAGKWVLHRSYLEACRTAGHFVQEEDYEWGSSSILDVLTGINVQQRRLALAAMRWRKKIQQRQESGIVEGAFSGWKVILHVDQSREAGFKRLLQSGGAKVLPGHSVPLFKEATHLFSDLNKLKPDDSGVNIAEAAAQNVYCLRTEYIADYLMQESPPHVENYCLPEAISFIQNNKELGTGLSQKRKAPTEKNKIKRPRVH

B1: ss pentaprobe 3 (ssDNA)
DNA: CGCTCTATTCTACTGTCCTGTGCATTCAATCGTTGAGTTCGATCTAGTCTCGTCTAACCCTCCCCTGCTCCGCTGGTCTGGCCTCGCCTATCCTACCCAT
Take B1: the binding result in the data set with ZNF827 ZnF1-3 deleted is reported as “no binding”; with ZNF827 ZnF4-9 deleted, “binds”; in the data set with ZNF827 full length, “binds”.

B2: ZNF827 full length (human zinc finger protein ZNF827) (other)
chain: MPRRKQEQPKRLPSHVSRQEEAEGELSEGEHWYGNSSETPSEASYGEVQENYKLSLEDRIQEQSTSPDTSLGSTTPSSHTLELVALDSEVLRDSLQCQDHLSPGVSSLCDDDPGSNKPLSSNLRRLLEAGSLKLDAAATANGRVESPVNVGSNLSFSPPSHHAQQLSVLARKLAEKQEQNDQYTPSNRFIWNQGKWLPNSTTTCSLSPDSAILKLKAAANAVLQDKSLTRTEETMRFESFSSPFSSQSASSTLAALSKKVSERSLTPGQEHPPPASSFLSLASMTSSAALLKEVAARAAGSLLAEKSSLLPEDPLPPPPSEKKPEKVTPPPPPPPPPPPPPPPQSLELLLLPVPKGRVSKPSNSASEEESGKPFQCPICGLVIKRKSYWKRHMVIHTGLKSHQCPLCPFRCARKDNLKSHMKVHQHQDRGETFQCQLCPFTSSRHFSLKLHMRCHQHFLRTEAKVKEEIPDPDVKGSPHLSDSACLGQQREGGGTELVGTMMTSNTPERTSQGGAGVSPLLVKEEPKEDNGLPTSFTLNAADRPANHTKLKDPSEYVANSASALFSQDISVKMASDFLMKLSAANQKEPMNLNFKVKEEPKEGESLSTTLPRSSYVFSPESEVSAPGVSEDALKPQEGKGSVLRRDVSVKAASELLMKLSAESYKETQMVKIKEEPMEVDIQDSHVSISPSRNVGYSTLIGREKTEPLQKMPEGRVPPERNLFSQDISVKMASELLFQLSEKVSKEHNHTKENTIRTTTSPFFSEDTFRQSPFTSNSKELLPSDSVLHGRISAPETEKIVLEAGNGLPSWKFNDQLFPCDVCGKVFGRQQTLSRHLSLHTEERKYKCHLCPYAAKCRANLNQHLTVHSVKLVSTDTEDIVSAVTSEGSDGKKHPYYYSCHVCGFETELNVQFVSHMSLHVDKEQWMFSICCTACDFVTMEEAEIKTHIGTKHTGEDRKTPSESNSPSSSSLSALSDSANSKDDSDGSQKNKGGNNLLVISVMPGSQPSLNSEEKPEKGFECVFCNFVCKTKNMFERHLQIHLITRMFECDVCHKFMKTPEQLLEHKKCHTVPTGGLNSGQW
notes: Co-IPs used lysates of human cells (U-2 OS, HT1080) from overexpression experiments; also called Myc-DDK-tagged ZNF827 full length; pCMV6 Myc-DDK-tagged ZNF827 (RC221405); not shown: Myc-DDK tag of the pCMV6 vector
Consider B2, for which the binding result in data set [1] is given as “binds”.

B3: ss pentaprobe 9 (ssDNA)
DNA: ATGGGTAGGATAGGCGAGGCCAGACCAGCGGAGCAGGGGAGGGTTAGACGAGACTAGATCGAACTCAACGATTGAATGCACAGGACAGTAGAATAGAGCG
For the molecule B3, the results for the binding result in the data set with ZNF827 ZnF1-3 deleted, in the data set with ZNF827 ZnF4-9 deleted and with ZNF827 full length were “no binding”, “binds” and “binds”, respectively.
